Results on three substances are retold here after patent publication US7338932.

For data set [1], the target named is EA2 acceptor peptide (…) (rat). Briefly: cell-based or functional assay.
In data set [2] the target is MUC2 acceptor peptide (…) (human). In words: cell-based or functional assay.
Data set [3] has as its system MUC7 acceptor peptide (Ac-CPPTPSATTPAPPSSSAPPETTAA).
Data set [4] has as its system EA2 acceptor peptide (PTTDSTTPAPTTK).

Sequence of purified human recombinant GalNAc-T2 (enzyme source of Examples 1-6) (chain, as listed by the source): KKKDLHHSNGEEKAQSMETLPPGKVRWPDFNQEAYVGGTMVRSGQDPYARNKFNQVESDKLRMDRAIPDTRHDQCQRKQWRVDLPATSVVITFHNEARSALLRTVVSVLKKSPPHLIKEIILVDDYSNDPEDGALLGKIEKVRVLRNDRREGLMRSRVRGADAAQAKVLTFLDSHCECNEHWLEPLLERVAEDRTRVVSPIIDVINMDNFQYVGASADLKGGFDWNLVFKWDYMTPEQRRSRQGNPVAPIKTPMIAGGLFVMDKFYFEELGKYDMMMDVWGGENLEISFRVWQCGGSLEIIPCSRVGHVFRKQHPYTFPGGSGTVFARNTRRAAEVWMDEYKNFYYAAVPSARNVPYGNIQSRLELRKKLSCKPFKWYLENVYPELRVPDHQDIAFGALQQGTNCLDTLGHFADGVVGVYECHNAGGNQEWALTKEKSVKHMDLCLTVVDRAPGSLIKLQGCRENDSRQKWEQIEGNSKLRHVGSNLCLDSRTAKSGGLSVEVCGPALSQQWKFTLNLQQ
Sequence of MUC2 acceptor peptide (…) (human) (peptide, as listed by the source): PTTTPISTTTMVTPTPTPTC

Consider “human recombinant GalNAc-T3 (enzyme source of Example 6) (from UniProt Q14435 52-633)”, for which the galactosyltransferase activity with UDP-Gal donor substrate, no inhibitor in data set [1] worked out at 6.3 nmol/min/mL.

Regarding “purified human recombinant GalNAc-T2 (enzyme source of Examples 1-6) (from UniProt Q10471 52-571)”, the galactosyltransferase activity with UDP-Gal donor substrate, no inhibitor in data set [2] came to 90 nmol/min/mL.

On to “purified human recombinant GalNAc-T2 (enzyme source of Examples 1-6)”, for which the “GalNAc-T2 activity with UDP-Gal” value in data set [3] is reported as “Muc7, 13 nmol/min/ml”; in data set [4], “EA2, 1.5 nmol/min/ml”.
